From PMC2631105

Molecular target: rabbit muscle fructose-1,6-bisphosphate aldolase A D128V (rabbit)
Assay: AUC

- stoichiometry N: 2
Substance: rabbit muscle fructose-1,6-bisphosphate aldolase A D128V (enzyme)
